Results reported in the supplement of paper PMC11316812.
± gives the standard deviation of the averaged measurements.

Experiments:
MCF7 = assay: percentage of EdU-negative (G0-arrested) nuclei per well, 72 h; higher = more G0 arrest; details: reference: sequence is the full UniProt precursor, the tested protein was the secreted form or ectodomain
hTERT-HMEC = assay: as above; details: reference: sequence is the full UniProt precursor, the tested protein was the secreted form or ectodomain
[1] = protein concentration 0.03125 µM
[2] = protein concentration 0.3125 µM
[3] = protein concentration 0.0225 µM
[4] = protein concentration 0.01275 µM
[5] = protein concentration 0.1275 µM
[6] = protein concentration 0.00685714 µM
[7] = protein concentration 0.0685714 µM
[8] = protein concentration 0.01575 µM
[9] = protein concentration 0.1575 µM
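Further: secreted proteins added to cultured cells, EdU pulse at the end, nuclei found by Hoechst imaging, EdU status from nuclear versus surrounding ring intensity ratio, PBS as neutral control.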

| Sequence | percentage of EdU-negative (MCF7; [3]) [%] | percentage of EdU-negative (MCF7; protein concentration 0.225 µM) [%] | percentage of EdU-negative (hTERT-HMEC; [3]) [%] | percentage of EdU-negative (hTERT-HMEC; protein concentration 0.225 µM) [%] | further results |
| --- | --- | --- | --- | --- | --- |
| MAAPALSWRLPLLILLLPLATSWASAAVNGTSQFTCFYNSRANISCVWSQDGALQDTSCQVHAWPDRRRWNQTCELLPVSQASWACNLILGAPDSQKLTTVDIVTLRVLCREGVRWRVMAIQDFKPFENLRLMAPISLQVVHVETHRCNISWEISQASHYFERHLEFEARTLSPGHTWEEAPLLTLKQKQEWICLETLTPDTQYEFQVRVKPLQGEFTTWSPWSQPLAFRTKPAALGKDTIPWLGHLLVGLSGAFGFIILVYLLINCRNTGPWLKKVLKCNTPDPSKFFSQLSSEHGGDVQKWLSSPFPSSSFSPGGLAPEISPLEVLERDKVTQLLLQQDKVPEPASLSSNHSLTSCFTNQGYFFFHLPDALEIEACQVYFTYDPYSEEDPDEGVAGAPTGSSPQPLQPLSGEDDAYCTFPSRDDLLLFSPSLLGGPSPPSTAPGGSGAGEERMPPSLQERVPRDWDPQPLGPPTPGVPDLVDFQPPPELVLREAGEEVPDAGPREGVSFPWSRPPGQGEFRALNARLPLNTDAYLSLQELQGQDPTHLV | – | – | – | – | percentage of EdU-negative (MCF7; [1]): 25.8 ± 3.7%; percentage of EdU-negative (MCF7; [2]): 26.1 ± 1.1%; percentage of EdU-negative (hTERT-HMEC; [1]): 4.64 ± 0.89%; percentage of EdU-negative (hTERT-HMEC; [2]): 4.91 ± 0.7% |
| MAAPGSARRPLLLLLLLLLLGLMHCASAAMFMVKNGNGTACIMANFSAAFSVNYDTKSGPKNMTFDLPSDATVVLNRSSCGKENTSDPSLVIAFGRGHTLTLNFTRNATRYSVQLMSFVYNLSDTHLFPNASSKEIKTVESITDIRADIDKKYRCVSGTQVHMNNVTVTLHDATIQAYLSNSSFSRGETRCEQDRPSPTTAPPAPPSPSPSPVPKSPSVDKYNVSGTNGTCLLASMGLQLNLTYERKDNTTVTRLLNINPNKTSASGSCGAHLVTLELHSEGTTVLLFQFGMNASSSRFFLQGIQLNTILPDARDPAFKAANGSLRALQATVGNSYKCNAEEHVRVTKAFSVNIFKVWVQAFKVEGGQFGSVEECLLDENSMLIPIAVGGALAGLVLIVLIAYLVGRKRSHAGYQTI | 27.7 ± 2.6 | 28.6 ± 2.1 | 4.801 ± 0.044 | 7.68 ± 1.6 | – |
| MAAPSGGWNGVGASLWAALLLGAVALRPAEAVSEPTTVAFDVRPGGVVHSFSHNVGPGDKYTCMFTYASQGGTNEQWQMSLGTSEDHQHFTCTIWRPQGKSYLYFTQFKAEVRGAEIEYAMAYSKAAFERESDVPLKTEEFEVTKTAVAHRPGAFKAELSKLVIVAKASRTEL [Q969H8] | – | – | – | – | percentage of EdU-negative (MCF7; [1]): 25.7 ± 1.8%; percentage of EdU-negative (MCF7; [2]): 24.42 ± 0.17%; percentage of EdU-negative (hTERT-HMEC; [1]): 4.64 ± 1%; percentage of EdU-negative (hTERT-HMEC; [2]): 5.57 ± 0.44% |
| MAAPVPWACCAVLAAAAAVVYAQRHSPQEAPHVQYERLGSDVTLPCGTANWDAAVTWRVNGTDLAPDLLNGSQLVLHGLELGHSGLYACFHRDSWHLRHQVLLHVGLPPREPVLSCRSNTYPKGFYCSWHLPTPTYIPNTFNVTVLHGSKIMVCEKDPALKNRCHIRYMHLFSTIKYKVSISVSNALGHNATAITFDEFTIVKPDPPENVVARPVPSNPRRLEVTWQTPSTWPDPESFPLKFFLRYRPLILDQWQHVELSDGTAHTITDAYAGKEYIIQVAAKDNEIGTWSDWSVAAHATPWTEEPRHLTTEAQAAETTTSTTSSLAPPPTTKICDPGELGSGGGPSAPFLVSVPITLALAAAAATASSLLI | 25 ± 1.9 | 27.1 ± 2.6 | 5 ± 0.54 | 6.52 ± 0.21 | – |
| MAAQGCAASRLLQLLLQLLLLLLLLAAGGARARWRGEGTSAHLRDIFLGRCAEYRALLSPEQRNKNCTAIWEAFKVALDKDPCSVLPSDYDLFINLSRHSIPRDKSLFWENSHLLVNSFADNTRRFMPLSDVLYGRVADFLSWCRQKNDSGLDYQSCPTSEDCENNPVDSFWKRASIQYSKDSSGVIHVMLNGSEPTGAYPIKGFFADYEIPNLQKEKITRIEIWVMHEIGGPNVESCGEGSMKVLEKRLKDMGFQYSCINDYRPVKLLQCVDHSTHPDCALKSAAAATQRKAPSLYTEQRAGLIIPLFLVLASRTQL | 25.74 ± 0.03 | 23.5 ± 0.97 | 5.33 ± 0.28 | 5.57 ± 1 | – |
| MAARALCMLGLVLALLSSSSAEEYVGLSANQCAVPAKDRVDCGYPHVTPKECNNRGCCFDSRIPGVPWCFKPLQEAECTF | 26.62 ± 0.26 | 24 ± 0.99 | 4.3 ± 0.16 | 4.29 ± 0.22 | – |
| MAARRSQRRRGRRGEPGTALLVPLALGLGLALACLGLLLAVVSLGSRASLSAQEPAQEELVAEEDQDPSELNPQTEESQDPAPFLNRLVRPRRSAPKGRKTRARRAIAAHYEVHPRPGQDGAQAGVDGTVSGWEEARINSSSPLRYNRQIGEFIVTRAGLYYLYCQVHFDEGKAVYLKLDLLVDGVLALRCLEEFSATAASSLGPQLRLCQVSGLLALRPGSSLRIRTLPWAHLKAAPFLTYFGLFQVH | 24.6 ± 1.4 | 24.3 ± 3.4 | 12.2 ± 2.6 | 13.4 ± 1.1 | – |
| MAASRWARKAVVLLCASDLLLLLLLLPPPGSCAAEGSPGTPDESTPPPRKKKKDIRDYNDADMARLLEQWEKDDDIEEGDLPEHKRPSAPVDFSKIDPSKPESILKMTKKGKTLMMFVTVSGSPTEKETEEITSLWQGSLFNANYDVQRFIVGSDRAIFMLRDGSYAWEIKDFLVGQDRCADVTLEGQVYPGKGGGSKEKNKTKQDKGKKKKEGDLKSRSSKEENRAGNKREDL | 27.3 ± 3.2 | 27.3 ± 1 | 5.03 ± 0.66 | 11 ± 0.91 | – |
| MAATSLMSALAARLLQPAHSCSLRLRPFHLAAVRNEAVVISGRKLAQQIKQEVRQEVEEWVASGNKRPHLSVILVGENPASHSYVLNKTRAAAVVGINSETIMKPASISEEELLNLINKLNNDDNVDGLLVQLPLPEHIDERRICNAVSPDKDVDGFHVINVGRMCLDQYSMLPATPWGVWEIIKRTGIPTLGKNVVVAGRSKNVGMPIAMLLHTDGAHERPGGDATVTISHRYTPKEQLKKHTILADIVISAAGIPNLITADMIKEGAAVIDVGINRVHDPVTAKPKLVGDVDFEGVRQKAGYITPVPGGVGPMTVAMLMKNTIIAAKKVLRLEEREVLKSKELGVATN | – | – | – | – | percentage of EdU-negative (MCF7; [4]): 24 ± 0.89%; percentage of EdU-negative (MCF7; [5]): 29 ± 2%; percentage of EdU-negative (hTERT-HMEC; [4]): 4.46 ± 0.17%; percentage of EdU-negative (hTERT-HMEC; [5]): 5.45 ± 0.4% |
| MAAVRGAPLLSCLLALLALCPGGRPQTVLTDDEIEEFLEGFLSELEPEPREDDVEAPPPPEPTPRVRKAQAGGKPGKRPGTAAEVPPEKTKDKGKKGKKDKGPKVPKESLEGSPRPPKKGKEKPPKATKKPKEKPPKATKKPKEKPPKATKKPKEKPPKATKKPPSGKRPPILAPSETLEWPLPPPPSPGPEELPQEGGAPLSNNWQNPGEETHVEAREHQPEPEEETEQPTLDYNDQIEREDYEDFEYIRRQKQPRPPPSRRRRPERVWPEPPEEKAPAPAPEERIEPPVKPLLPPLPPDYGDGYVIPNYDDMDYYFGPPPPQKPDAERQTDEEKEELKKPKKEDSSPKEETDKWAVEKGKDHKEPRKGEELEEEWTPTEKVKCPPIGMESHRIEDNQIRASSMLRHGLGAQRGRLNMQTGATEDDYYDGAWCAEDDARTQWIEVDTRRTTRFTGVITQGRDSSIHDDFVTTFFVGFSNDSQTWVMYTNGYEEMTFHGNVDKDTPVLSELPEPVVARFIRIYPLTWNGSLCMRLEVLGCSVAPVYSYYAQNEVVATDDLDFRHHSYKDMRQLMKVVNEECPTITRTYSLGKSSRGLKIYAMEISDNPGEHELGEPEFRYTAGIHGNEVLGRELLLLLMQYLCREYRDGNPRVRSLVQDTRIHLVPSLNPDGYEVAAQMGSEFGNWALGLWTEEGFDIFEDFPDLNSVLWGAEERKWVPYRVPNNNLPIPERYLSPDATVSTEVRAIIAWMEKNPFVLGANLNGGERLVSYPYDMARTPTQEQLLAAAMAAARGEDEDEVSEAQETPDHAIFRWLAISFASAHLTLTEPYRGGCQAQDYTGGMGIVNGAKWNPRTGTINDFSYLHTNCLELSFYLGCDKFPHESELPREWENNKEALLTFMEQVHRGIKGVVTDEQGIPIANATISVSGINHGVKTASGGDYWRILNPGEYRVTAHAEGYTPSAKTCNVDYDIGATQCNFILARSNWKRIREIMAMNGNRPIPHIDPSRPMTPQQRRLQQRRLQHRLRLRAQMRLRRLNATTTLGPHTVPPTLPPAPATTLSTTIEPWGLIPPTTAGWEESETETYTEVVTEFGTEVEPEFGTKVEPEFETQLEPEFETQLEPEFEEEEEEEKEEEIATGQAFPFTTVETYTVNFGDF [Q8IUX7] | – | – | – | – | percentage of EdU-negative (MCF7; [6]): 24.8 ± 1.1%; percentage of EdU-negative (MCF7; [7]): 28.5 ± 0.34%; percentage of EdU-negative (hTERT-HMEC; [6]): 4.79 ± 0.43%; percentage of EdU-negative (hTERT-HMEC; [7]): 11.5 ± 0.62% |
| MAAVVAATRWWQLLLVLSAAGMGASGAPQPPNILLLLMDDMGWGDLGVYGEPSRETPNLDRMAAEGLLFPNFYSANPLCSPSRAALLTGRLPIRNGFYTTNAHARNAYTPQEIVGGIPDSEQLLPELLKKAGYVSKIVGKWHLGHRPQFHPLKHGFDEWFGSPNCHFGPYDNKARPNIPVYRDWEMVGRYYEEFPINLKTGEANLTQIYLQEALDFIKRQARHHPFFLYWAVDATHAPVYASKPFLGTSQRGRYGDAVREIDDSIGKILELLQDLHVADNTFVFFTSDNGAALISAPEQGGSNGPFLCGKQTTFEGGMREPALAWWPGHVTAGQVSHQLGSIMDLFTTSLALAGLTPPSDRAIDGLNLLPTLLQGRLMDRPIFYYRGDTLMAATLGQHKAHFWTWTNSWENFRQGIDFCPGQNVSGVTTHNLEDHTKLPLIFHLGRDPGERFPLSFASAEYQEALSRITSVVQQHQEALVPAQPQLNVCNWAVMNWAPPGCEKLGKCLTPPESIPKKCLWSH | – | – | – | – | percentage of EdU-negative (MCF7; [8]): 27.9 ± 1.1%; percentage of EdU-negative (MCF7; [9]): 26.9 ± 0.35%; percentage of EdU-negative (hTERT-HMEC; [8]): 5.59 ± 0.71%; percentage of EdU-negative (hTERT-HMEC; [9]): 24.2 ± 1.3% |
